In patent US20020019514A1 (Harvard, published 2002):

Target: T1, CIITA (expressed from the CIITA expression vector pCMV.CIITA) (UniProt P33076 1-1130)
T1 sequence (looked up): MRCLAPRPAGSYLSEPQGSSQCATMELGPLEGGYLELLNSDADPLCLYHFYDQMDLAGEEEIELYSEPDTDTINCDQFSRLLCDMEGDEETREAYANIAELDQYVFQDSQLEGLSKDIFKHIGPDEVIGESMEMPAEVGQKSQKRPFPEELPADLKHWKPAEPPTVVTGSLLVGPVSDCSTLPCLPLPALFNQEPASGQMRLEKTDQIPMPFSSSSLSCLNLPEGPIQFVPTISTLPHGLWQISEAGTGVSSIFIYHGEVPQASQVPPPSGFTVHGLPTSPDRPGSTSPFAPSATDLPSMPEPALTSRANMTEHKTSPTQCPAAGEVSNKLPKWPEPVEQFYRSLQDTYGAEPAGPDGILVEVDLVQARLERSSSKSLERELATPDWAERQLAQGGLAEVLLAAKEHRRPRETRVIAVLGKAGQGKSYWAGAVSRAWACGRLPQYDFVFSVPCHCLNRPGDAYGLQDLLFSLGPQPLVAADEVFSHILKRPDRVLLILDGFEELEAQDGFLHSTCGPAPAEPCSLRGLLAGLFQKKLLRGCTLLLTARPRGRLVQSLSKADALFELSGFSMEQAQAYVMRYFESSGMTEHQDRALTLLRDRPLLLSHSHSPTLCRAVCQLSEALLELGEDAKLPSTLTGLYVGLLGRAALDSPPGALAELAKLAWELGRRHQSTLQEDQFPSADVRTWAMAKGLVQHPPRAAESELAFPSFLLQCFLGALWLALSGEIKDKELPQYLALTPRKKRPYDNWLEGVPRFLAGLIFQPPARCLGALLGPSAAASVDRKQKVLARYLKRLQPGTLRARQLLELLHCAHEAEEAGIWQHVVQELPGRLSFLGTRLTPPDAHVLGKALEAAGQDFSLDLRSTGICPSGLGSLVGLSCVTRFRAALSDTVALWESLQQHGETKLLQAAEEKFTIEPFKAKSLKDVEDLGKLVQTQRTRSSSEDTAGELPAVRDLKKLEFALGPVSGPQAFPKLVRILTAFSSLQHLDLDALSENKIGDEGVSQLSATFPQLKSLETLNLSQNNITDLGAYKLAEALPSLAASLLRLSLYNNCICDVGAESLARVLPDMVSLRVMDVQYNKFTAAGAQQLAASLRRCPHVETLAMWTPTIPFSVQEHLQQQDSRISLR
Test: cell-based or functional assay

CIITA-mediated DRα-CAT expression (DRα promoter CAT reporter in cotransfected cells): ~30 fold
B1: CIITA-Interacting Protein 104 (CIP104) (other)
chain: MKMLDESIRKEEEQQQHEAGVAPQPPLKEPFASLQSPFPTDTAPTTTAPAVAVTTTTTTTTTTTATQEEEKKPPPALPPPPPLAKFPPPSQPQPPPPPPPSPASLLKSLASVLEGQKYCYRGTGAAVSTRPGPLPTTQYSPGPPSGATALPPTSAAPSAQGSPQPSASSSSQFSTSGGPWARERRAGEEPVPGPMTPTQPPPPLSLPPARSESEVLEEISRACETLVERVGRSATDPADPVDTAEPADSGTERLLPPAQAKEEAGGVAAVSGSCKRRQKEHQKEHRRHRRACKDSVGRRPREGRAKAKAKVPKEKSRRVLGNLDLQSEEIQGREKSRPDLGGASKAKPPTAPAPPSAPAPSAQPTPPSASVPGKKAREEAPGPPGVSRADMLKLRSLSEGPPKELKIRLIKVESGDKETFIASEVEERRLRMADLTISHCAADVVRASRNAKVKGKFRESYLSPAQSVKPKINTEEKLPREKLNPPTPSIYLESKRDAFSPVLLQFCTDPRNPITVIRGLAGSLRLNLGLFSTKTLVEASGEHTVEVRTQVQQPSDENWDLTGTRQIWPCESSRSHTTIAKYAQYQASSFQESLQEEKESEDEESEEPDSTTGTPPSSAPDPKNHHIIKFGTNIDLSDAKRWKPQLQELLKLPAFMRVTSTGNMLSHVGHTILGMNTVQLYMKVPGSRTPGHQENNNFWSVNINIGPGDCEWFAVHEHYWETIRAFCDRHGVDYLTGSWWPILDDLYASNIPVYRFVQRPGDLVWINAGTVHWVQATGWCNNIAWNVGPLTAYQYQLALERYEWNEVKNVKSIVPMIHVSWNVARTVKISDPDLFKMIKFCLLQSMKHCQVQRESLVRAGKKIAYQGRVKDEPAYYCNDCDVEVFNILFVTSENGSRNTYLVHCEGCARRRSAGLQGVVVLEQYRTEELAQAYDAFTLAPASTSR
